Experimental findings from the Human Domainome abundance scans (Beltran et al. 2025) are described below.

B1: Histidine--tRNA ligase, cytoplasmic, residues 8 to 45; numbered along this chain, P12081 (parent)
chain: EELVKLQGERVRGLKQQKASAELIEEEVAKLLKLKAQL

± gives the uncertainty stated by the source.

In the series the parent is B1. In words: abundance fitness (aPCA) (normalised: wild type 0, dead -1); higher = more abundant; growth selection in yeast, the domain comes from the species named. To be noted: Homo sapiens.
For the variant EELVKLQGERVRGLKQQKASAELIEEEVGKLLKLKAQL, the abundance fitness was -0.092 ± 0.09.
On to EELVKLQGERVRGLKQQKASAELIEEEVQKLLKLKAQL, for which the abundance fitness was 0.07 ± 0.11.
With EELVKLQGERVRGLKQQKASAELIEEEVLKLLKLKAQL, the abundance fitness was -0.462 ± 0.083.
As for EELVKLQGERVRGLKQQKASAELIEEEVFKLLKLKAQL, the abundance fitness is -0.8 ± 0.11.
Regarding EELVKLQGERVRGLKQQKASAELIEEEVIKLLKLKAQL, the abundance fitness is -0.618 ± 0.11.
To EELVKLQGERVRGLKQQKASAELIEEEVHKLLKLKAQL belongs -0.265 ± 0.093; to EELVKLQGERVRGLKQQKASAELIEKEVAKLLKLKAQL, 0.184 ± 0.092.
Under EELVKLQGERVRGLKQQKASAELIEWEVAKLLKLKAQL stands -0.594 ± 0.12; under EELVKLQGERVRGLKQQKASAELIEDEVAKLLKLKAQL, -0.009 ± 0.096.
As to EELVKLQGERVRGLKQQKASAELIEIEVAKLLKLKAQL, the abundance fitness came to 0.086 ± 0.13.
To EELVKLQGERVRGLKQQKASAELIELEVAKLLKLKAQL belongs -0.046 ± 0.067; to EELVKLQGERVRGLKQQKASAELIESEVAKLLKLKAQL, 0.184 ± 0.074; to EELVKLQGERVRGLKQQKASAELIEFEVAKLLKLKAQL, -0.038 ± 0.083.
Under EELVKLQGERVRGLKQQKASAELIEQEVAKLLKLKAQL stands 0.139 ± 0.093.
On to EELVKLQGERVRGLKQQKASAELIEREVAKLLKLKAQL, for which the abundance fitness was 0.1 ± 0.08.
Under EELVKLQGERVRGLKQQKASAELIEHEVAKLLKLKAQL stands 0.284 ± 0.12.
Under EELVKLQGERVRGLKQQKASAELIEGEVAKLLKLKAQL stands -0.146 ± 0.11.
To EELVKLQGERVRGLKQQKASAELIEPEVAKLLKLKAQL belongs -0.024 ± 0.084.
For EELVKLQGERVRGLKQQKASAELIEMEVAKLLKLKAQL, the abundance fitness came out at 0.168 ± 0.1.
To EELVKLQGERVRGLKQQKASAELIECEVAKLLKLKAQL belongs -0.024 ± 0.085; to EELVKLQGERVRGLKQQKASAELIEAEVAKLLKLKAQL, 0.263 ± 0.087.
To EELVKLQGERVRGLKQQKASAELIEVEVAKLLKLKAQL belongs -0.116 ± 0.084; to EELVKLQGERVRGLKQQKASAELITEEVAKLLKLKAQL, -0.009 ± 0.081.
On to EELVKLQGERVRGLKQQKASAELIQEEVAKLLKLKAQL, for which the abundance fitness is 0.071 ± 0.097.
Under EELVKLQGERVRGLKQQKASAELIWEEVAKLLKLKAQL stands -0.586 ± 0.11; under EELVKLQGERVRGLKQQKASAELIMEEVAKLLKLKAQL, -0.184 ± 0.11; under EELVKLQGERVRGLKQQKASAELISEEVAKLLKLKAQL, 0.032 ± 0.073.
As to EELVKLQGERVRGLKQQKASAELINEEVAKLLKLKAQL, the abundance fitness is 0.055 ± 0.13.
Under EELVKLQGERVRGLKQQKASAELIREEVAKLLKLKAQL stands -0.064 ± 0.069; under EELVKLQGERVRGLKQQKASAELILEEVAKLLKLKAQL, -0.484 ± 0.098; under EELVKLQGERVRGLKQQKASAELIPEEVAKLLKLKAQL, -0.208 ± 0.095.
In the case of EELVKLQGERVRGLKQQKASAELIKEEVAKLLKLKAQL, the abundance fitness is -0.001 ± 0.11.
As to EELVKLQGERVRGLKQQKASAELIEEMVAKLLKLKAQL, the abundance fitness was -0.874 ± 0.16.
Under EELVKLQGERVRGLKQQKASAELIEEWVAKLLKLKAQL stands -1.11 ± 0.13.
For the variant EELVKLQGERVRGLKQQKASAELIEEIVAKLLKLKAQL, the abundance fitness is -1.47 ± 0.15.
Under EELVKLQGERVRGLKQQKASAELIEENVAKLLKLKAQL stands -0.079 ± 0.078; under EELVKLQGERVRGLKQQKASAELIEEPVAKLLKLKAQL, -0.214 ± 0.091.
For EELVKLQGERVRGLKQQKASAELIEEHVAKLLKLKAQL, the abundance fitness is -0.436 ± 0.093.
Under EELVKLQGERVRGLKQQKASAELIEEAVAKLLKLKAQL stands -0.108 ± 0.089; under EELVKLQGERVRGLKQQKASAELIEEVVAKLLKLKAQL, -1.1 ± 0.093.
Under EELVKLQGERVRGLKQQKASAELIEEKVAKLLKLKAQL stands -0.649 ± 0.15.
Under EELVKLQGERVRGLKQQKASAELIEESVAKLLKLKAQL stands -0.291 ± 0.077; under EELVKLQGERVRGLKQQKASAELIEETVAKLLKLKAQL, -0.798 ± 0.085; under EELVKLQGERVRGLKQQKASAELIEERVAKLLKLKAQL, -0.741 ± 0.084.
For EELVKLQGERVRGLKQQKASAELIEEEVAKLLELKAQL, the abundance fitness stood at 0.226 ± 0.13.
EELVKLQGERVRGLKQQKASAELIEEEVAKLLALKAQL: the abundance fitness is -0.081 ± 0.11.
Under EELVKLQGERVRGLKQQKASAELIEEEVAKLLCLKAQL stands -0.451 ± 0.093; under EELVKLQGERVRGLKQQKASAELIEEEVAKLLGLKAQL, -0.147 ± 0.089.
To EELVKLQGERVRGLKQQKASAELIEEEVAKLLFLKAQL belongs -0.338 ± 0.11.
To EELVKLQGERVRGLKQQKASAELIEEEVAKLHKLKAQL belongs 0.08 ± 0.087; to EELVKLQGERVRGLKQQKASAELIEEEVAKLKKLKAQL, 0.105 ± 0.11.
For EELVKLQGERVRGLKQQKASAELIEEEVAKLMKLKAQL, the abundance fitness turned out to be 0.206 ± 0.087.
Under EELVKLQGERVRGLKQQKASAELIEEEVAKLGKLKAQL stands 0.121 ± 0.091; under EELVKLQGERVRGLKQQKASAELIEEEVAKLQKLKAQL, 0.201 ± 0.095.
To EELVKLQGERVRGLKQQKASAELIEEEVAKLWKLKAQL belongs -0.098 ± 0.1; to EELVKLQGERVRGLKQQKASAELIEEEVAKLIKLKAQL, -0.093 ± 0.1; to EELVKLQGERVRGLKQQKASAELIEEEVAKLDKLKAQL, 0.174 ± 0.1.
Consider EELVKLQGERVRGLKQQKASAELIEEEVAKLNKLKAQL, for which the abundance fitness is 0.247 ± 0.091.
With EELVKLQGERVRGLKQQKASAELIEEEVAKLPKLKAQL, the abundance fitness stood at 0.098 ± 0.11.
To EELVKLQGERVRGLKQQKASAELIEEEVAKLVKLKAQL belongs -0.076 ± 0.083; to EELVKLQGERVRGLKQQKASAELIEEEVAKLFKLKAQL, -0.289 ± 0.076.
Under EELVKLQGERVRGLKQQKASAELIEEEVAKLSKLKAQL stands 0.112 ± 0.09.
With EELVKLQGERVRGLKQQKASAELIEEEVAKLAKLKAQL, the abundance fitness was 0.227 ± 0.089.
Regarding EELVKLQGERVRGLKQQKASAELIEEEVAKLCKLKAQL, the abundance fitness is 0.116 ± 0.096.
As for EELVKLQGERVRGLKQQKASAELIEEEVAKLTKLKAQL, the abundance fitness was determined as 0.117 ± 0.13.
To EELVKLQGERVRGLKQQKASAELIEEEVAKLRKLKAQL belongs 0.096 ± 0.079.
